{"source": "paper PMC5829230", "about": "“G-protein βγ subunits determine grain size through interaction with MADS-domain transcription factors in rice”", "binders": {"B1": {"name": "MADS55-EMSA-probe (dsDNA)", "DNA 1": "AGGCAGTATCTATCTATTTATTGCGTATAAACTAAAT", "DNA 2": "ATTTAGTTTATACGCAATAAATAGATAGATACTGCCT"}}, "target": "GST-OsMADS1 (Oryza sativa, UniProt Q10PZ9 1-257)", "sequence (Q10PZ9 whole entry)": "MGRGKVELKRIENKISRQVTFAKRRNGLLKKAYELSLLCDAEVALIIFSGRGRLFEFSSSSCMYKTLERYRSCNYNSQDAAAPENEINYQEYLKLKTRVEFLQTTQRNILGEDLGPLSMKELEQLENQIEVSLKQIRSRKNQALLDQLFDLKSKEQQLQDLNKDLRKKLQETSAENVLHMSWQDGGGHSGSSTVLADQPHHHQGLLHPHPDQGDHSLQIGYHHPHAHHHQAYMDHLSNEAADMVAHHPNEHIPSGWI", "assay": "EMSA; 10x and 50x unlabeled probe as competitor; LightShift Chemiluminescent EMSA Kit (Thermo 20148); buffer, salt, pH and temperature not stated", "conditions": "protein: recombinant; tags: N-terminal GST (pGEX-4T-1); chain copies: 2; label: biotin; blunt", "data": [{"binder": "B1", "values": [{"measurement": "binding result", "value": "binds"}]}]}
